B1: TPR t1 (parent)
chain: GACCAAUCUGCCCUCAGAGCUCGAGAACAUCUUCGGAUGCAGAGGAGGCAGGCUUCGGUGGCGCGAUAGCGCCAACGUCCUCAACCUCCAAUGCAUCCCACCACAUGAUGAUGCCUGAAGAGCCUUGGUUUUUUG

Variants of: B1
Assay: polymerase ribozyme fitness, log enrichment relative to wild type (log ratio); higher = more active; in vitro selection for triplet polymerase activity
Outline: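 Input and output libraries were sequenced on Illumina after a single in vitro selection round, run in triplicate on PCR-built, transcribed mutant libraries of each subunit of a heterodimeric triplet polymerase ribozyme. Selection annealed libraries to a biotinylated primer, the partner subunit and triplets, incubated them frozen at −7 °C, then gel-excised extended constructs for streptavidin-bead capture and RT-PCR. Genotypes with ≥10 input reads and ≥1 read per output were kept. Fitness is the logarithm, taken in base 2, of genotype enrichment divided by wild-type enrichment, using inverse-variance-weighted replicate averages.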

Q: With GACCAAUCGGCCCCCAGAGCUCGAGAACAUCUUCGGAGGCAGAGGAGGCAGGCUUCGGUGUCGCGAUAGCGUCAACGUCCUCAACCUCCAUUGCAUCCCACCACAUGAUGAUGCCUGAAGAGCUUUGGUUUUUUG [U9G U14C U38G G61U C72U A91U C124U] as the variant, how does the “polymerase ribozyme fitness (log ratio)” value read?
A: -3.69

Q: With GACCAAUCGGCCCUCAGAGCUCGAGAACAUCUUCGGAUGCAGAGGAGGCAGGCGUCGGUGGCGCGAUAGCGCCAACGUCCACAACCUCCAAUGCAUCCCACCACAUGAUGAUGCCUGAAGAGCCAUGUUUUUUUG [U9G U54G U81A U125A G128U] as the variant, how does the “polymerase ribozyme fitness (log ratio)” value read?
A: -3.65

Q: For GACCAAUCGGCCCUCAGAGCUCGAGAACAUCUUCGGAUGCAGAGGAGGCAGGCCUCGGUGGCGCGAUAACGCCAACGUCUUCAACCUCCAAUGCAUCCCACCACAUGAUGAUGCCUGAAGAGCCUUGGUUUUUUG [U9G U54C G69A C80U], which “polymerase ribozyme fitness (log ratio)” value is on record?
A: -2.99

Q: Which “polymerase ribozyme fitness (log ratio)” value does the source give for GACCAAUCGGCCCUCAGAGCUCGAGAACAUCUUCGGACGCAGAGGCGGCAGGCUUCGGCGGCGCGUUAGCGCCAACGUCCACAACCUCCAAUGCAUCCCACCACAUGAUGAUGCCUGAAGAGCCUUGGUUUUUUG [U9G U38C A46C U59C A66U U81A] here?
A: -5.6

Q: For GACCAAUCGGCCCUCAGAGCUCGAGAACAUCAUCGGAUGCAGAGGAGGCAGGCUUCGGUGGGGCGAUAGCGCCAACGUCCUCAACCUCCAAGGCAUCCCACCACAUGAUGAUGCCUCAAGAGCCUUGGUUUUUUG [U9G U32A C62G U92G G117C], which “polymerase ribozyme fitness (log ratio)” value is on record?
A: -5.56

Q: With GACCAAUCGGCCCUCAGAGCUCGAGAACAUCCUCGGAUGCAGAGGAGGCAGGCUUCGGAGGCGCGAUAGCGCCAACGUCCUCAACCUCCAAUGCAUCCCACCACAUGAUGAUGCCUGAAGAGCCUUGGUUAUUUG [U9G U32C U59A U131A] as the variant, how does the “polymerase ribozyme fitness (log ratio)” value read?
A: -0.0228

Q: Which “polymerase ribozyme fitness (log ratio)” value does the source give for GACCAAUCGGCCCUCAGAGCUCGAGAACAUCUUCGGAUGCAGAGGAGGCAGGCUUCGGUGGCGCGAUAGCGCCAACGUCCUCAACCUCCAAUGCAUCCCACCACAUGAUGAUGCCUGAAUAGCCUUGGUUUUUUG [U9G G120U] here?
A: 1.06

Q: With GACCAAUCGGCCCUCAGAGCUCGAGAACAUCUUCGGAUGCAGAGGAGGCAGGCUUCGGUGGCGCGAUAGCGCCAACGCCCUCAACCUCCAAUGCAUCCCACCACAUGAUGAUGCCUGAAGUGCCUUGGUUUUUUG [U9G U78C A121U] as the variant, how does the “polymerase ribozyme fitness (log ratio)” value read?
A: 1.6

Q: With GACCAAUCGGCCCUCAGAGCUCGAGAACAUCUUCGGAUGCAGAGGAGGCAGGCAUAGGUGGCGCGAUAGCACCAACGUCCUCAACCUCCAAUGCAUCCCACCACAUGAUGAUGCCUGAAGAGCCUUGGUUUUUUG [U9G U54A C56A G71A] as the variant, how does the “polymerase ribozyme fitness (log ratio)” value read?
A: -2.22

Q: For GACCAAUCGGCCCUCAGAGCUCGAGAACAUCUUCGGAUGCAGAGGAGGCAGGCUUCGGUGGCGCGAUAGCGCCAACGUCCUCAACCUCCAAUGCAUCCCACCACAUGAUGAUUCCUGAAGAGCCUUGGUUUUUUG [U9G G113U], which “polymerase ribozyme fitness (log ratio)” value is on record?
A: -1.66

Q: With GACCAAUCGGCCCUCAGAGCUCGAGAACAUCUUCGGAUGCAGAGGAGGCAGGCUUCGGUGGCGCGAUAGCGCCAACGUCCUCAACCUCCAAUGCAUCCCACCACAUGAUGAUCCCUGAAGAGCCUUGGUUUUUUG [U9G G113C] as the variant, how does the “polymerase ribozyme fitness (log ratio)” value read?
A: -1.34

Q: For GACCAAUCGGCCCACAGAGCUCGAGAACAUCUUCGGAUGCAGAGGUGGCAGGCUUCGGUGGCGCGAUGGCGCCAACGUCCUCAACCUCCAAUGCAUCCCACCACAUGAUGAUGCCUGAAGAGCCUUGGUUUUUUG [U9G U14A A46U A68G], which “polymerase ribozyme fitness (log ratio)” value is on record?
A: -4.4

Q: Which “polymerase ribozyme fitness (log ratio)” value does the source give for GACCAAUCGGCCCUCAGAGCUCGAGAACAUCUUCGGAUGCAGAGGAGGCAGGCUUCGGUGGCGCGAUAGCGCCAACGUCCUCAACCUCCAAUGCAUCCCACCACAUGAUUAUGCCUGAAGAGCCUUGGUUUUUUG [U9G G110U] here?
A: -1.36

Q: With GACCAAUCGGCCCUCAGAGCUCGAGAACAUCUUCGGAUGCAGAGGAGGCAGGCUUCGGUGGCGCGAUAGCGCCAACGUCCUCAACCUCCAAUGCAUCCCACCACAUGAUAAUGCCUGAAGAGCCUUGGUUUUUUG [U9G G110A] as the variant, how does the “polymerase ribozyme fitness (log ratio)” value read?
A: -0.713

Q: For GACCAAUCGGCCCUCAGAGCACGAGAACAUCUUCGGAUGCAGAGGAGGCAGGCUUCGGUGGCGCGAUAGCGCCAACGUCCUCAACCUCCAAUGCAUCCCACCACAUGAUGAUGCCUGAAGAGCCUUAGUUUUUUG [U9G U21A G127A], which “polymerase ribozyme fitness (log ratio)” value is on record?
A: -0.983

Q: For GACCAAUCGGCCCUCAGAGCUCGAGAACAUCCUCGGAUGCAGAGGAGGCAGCCUUCGGUGGCGCGAUAGCGCCAACGUCCUCAACCUCCAAUGCAUCCCACCACAUGAUGAUGCCUGAAGAGCCUUGGUUUUUUG [U9G U32C G52C], which “polymerase ribozyme fitness (log ratio)” value is on record?
A: -0.471

Q: Which “polymerase ribozyme fitness (log ratio)” value does the source give for GACCAAUCGGCCCUCAGAGCUCGAGAACAUCUUCGGAUGCAGAGGAGGCAGGCAUCGGUGGCGCGAUACCGCCAACGUCCUCAACCUCCAAUGCAUCCCACCACAUGAUGAUGCCUGAAGAGCCUUGGCUUUUUG [U9G U54A G69C U129C] here?
A: -2.97

Q: With GACCAAUCGGCCCUCAGAGCUCGAGAACAUCCUCGGAUGCAGAGGAGGCAGCCUUCGGUGGCGCGAUAGCGCCAACGUCCUCAACCUCCAAUGCAUCCCACCACAUGAUCAUGCCUGAAGAGCCUUGGUUUUUUG [U9G U32C G52C G110C] as the variant, how does the “polymerase ribozyme fitness (log ratio)” value read?
A: -5.7

Q: For GACCAAUCGGCCCUCAGAGCUCGAGAACAUCUUCGGAGGCAGAGGAGGCAGGCUUCGGUGGCGCGAUAGCGCCAACGUCCUCAACCUCCAAUGCAUCCCACCACAUGAUGAUGCCUGAAGAGCCUUGGUUUUUUG [U9G U38G], which “polymerase ribozyme fitness (log ratio)” value is on record?
A: -0.556

Q: With GACCAAUCGGCCCUCAGAGCCCGAGAACAUCUUCGGAUGCAGAGGAGGCAGGCUUCGGUGGCGCGAUAGUGCCAACGUCCUCAACCUCCAAUGCAUCCCACCACAUGAUGAUGCCUGAAGAGCCUUGGUUUUUUG [U9G U21C C70U] as the variant, how does the “polymerase ribozyme fitness (log ratio)” value read?
A: -1.31

Q: For GACCAAUCGGCCCUCAGAGCUCGAGAACAUCUUCGGAUGCAGAGGAGGCAGGCUUCGGCGGCGCGAUAGCGCCAACGUCCUCAACCUCCAAUGCAUCCCAUCACAUGAUGAUGCCUGAAGAGCCUUGGUUUUUUG [U9G U59C C101U], which “polymerase ribozyme fitness (log ratio)” value is on record?
A: -0.449

Source: the RNAGym collection of RNA variant scans (doi:10.1073/pnas.2313332121)
